Data reported in paper PMC8725004, “Crystal structures of FolM alternative dihydrofolate reductase 1 from Brucella suis and Brucella canis” (Acta Crystallographica. Section F, Structural Biology …, 2022).

B1: FolM alternative dihydrofolate reductase 1 from Brucella suis (enzyme)
chain: MLNDPEARMVANCPVLVTGGARRIGKAIVEDLASHGFPVAIHCNRSLDEGEAIANRINDSGGNACVVQADLEGDVRGLVKQASDRIGPIRLLVNNASLFQEDKVGALDMALWDRHFAVHLKTPVILAEDMRKALPEDQDGLVVNIIDQRVWKLNPQFFSYTLSKSALWNATRTLAQALAPRIRVNAIAPGPTLPSERQRPEDFERQVSKLPLQRAPELPEFGRTVRYFWENRSITGQMIALDGGQHLAWETPDIAGITE
notes: also called BsFolM; His-BsFolM
B2: FolM alternative dihydrofolate reductase 1 from Brucella canis (enzyme)
chain: MVLNDPEARMVANCPVLVTGGARRIGKAIVEDLASHGFPVAIHCNRSLDEGEAIANRINDSGGNACVVQADLEGDVRGLVKQASDRIGPIRLLVNNASLFQEDKVGALDMALWDRHFAVHLKTPVILAEDMRKALPEDQDGLVVNIIDQRVWKLNPQFFSYTLSKTALWNATRTLAQALAPRIRVNAIAPGPTLPSERQRPEDFERQVSKLPLQRAPELPEFGRTVRYFWENRSITGQMIALDGGQHLAWETPDIAELPNK
notes: also called BcFolM; His-BcFolM

Molecular target: the molecule itself
Test: crystal structure

Protein | stoichiometry N
B1 | 4
B2 | 4
